# Experimental data from article PMC314469, “Protein Interaction Networks by Proteome Peptide Scanning” (PLoS Biology, 2004).
# T1: Yhr016c SH3 (YSC84_YEAST), P32793
# T1 chain: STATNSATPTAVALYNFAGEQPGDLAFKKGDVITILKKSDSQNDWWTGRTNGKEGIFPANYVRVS
# T2: Rvs167 SH3 (RV167_YEAST), P39743
# T2 chain: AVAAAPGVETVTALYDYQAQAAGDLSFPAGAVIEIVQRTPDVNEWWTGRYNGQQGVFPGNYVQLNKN
# T3: Yfr024 SH3 (LSB3_YEAST), P43603
# T3 chain: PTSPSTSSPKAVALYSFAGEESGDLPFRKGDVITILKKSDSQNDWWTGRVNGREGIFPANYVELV
# T4: Boi2 SH3 (BOI2_YEAST), P39969
# T4 chain: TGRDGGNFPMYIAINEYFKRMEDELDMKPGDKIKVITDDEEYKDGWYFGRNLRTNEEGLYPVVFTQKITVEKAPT
# T5: Boi1 SH3 (BOI1_YEAST), P38041
# T5 chain: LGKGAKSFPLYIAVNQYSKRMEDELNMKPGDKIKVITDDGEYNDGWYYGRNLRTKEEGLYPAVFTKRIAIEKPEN
# B1: YLL021W 1085-1098 (peptide)
# chain: KNSPLAPIKKNVEL
# B2: YGL085W 143-156 (peptide)
# chain: KNLPTIPIRLSGID
# B3: YJR113C 102-115 (peptide)
# chain: KSVPIPPRKNATLD
# B4: YOR219C 616-629 (peptide)
# chain: KLGPDTPIKVAGPL
# B5: YDR026C 223-236 (peptide)
# chain: KRTPKIPEKDVKSD
# B6: YMR044W 286-299 (peptide)
# chain: KPKPPKPIKYHFED
# B7: YDL027C 313-326 (peptide)
# chain: KNLPLNPSKKLEGK
# B8: YJR092W 851-864 (peptide)
# chain: KMTPSTPVRSISPI
# B9: YER164W 1280-1293 (peptide)
# chain: KKLPTGPSKKRQRK
# B10: YLR115W 535-548 (peptide)
# chain: KMFPFNPAKIKKDD
# B11: YPL242C 77-90 (peptide)
# chain: KLKPSLPNKLVGKY
# B12: YNL106C 1157-1170 (peptide)
# chain: KSKPKVPAKNPELE
# B13: YBR156C 161-174 (peptide)
# chain: KSSPWSPYKVEKVL
# B14: YLL015W 63-76 (peptide)
# chain: KNFPTLPSKINSRH
# B15: YIR018W 29-42 (peptide)
# chain: KLPPRLPHRAAQRR
# B16: YPR104C 439-452 (peptide)
# chain: KKPPKIPKKVYTLE
# B17: YPR171W 469-482 (peptide)
# chain: KRPPTAPQRKISLP
# B18: YBR108W 84-97 (peptide)
# chain: KSFPPPPLKPGQKT
# B19: YFR030W 641-654 (peptide)
# chain: KLRPDLPVKNFVVK
# B20: YFL054C 238-251 (peptide)
# chain: KLEPENPQKPSNTH
# B21: YDR485C 336-349 (peptide)
# chain: KKYPRKPKKNLNLG
# B22: YBL101C 851-864 (peptide)
# chain: KPDPESPSKLRHYE
# Columns and labels:
# Experiment in all cases: SPOT array
# [1] = molecular target: T1, Yhr016c SH3 (YSC84_YEAST), P32793
# [2] = molecular target: T2, Rvs167 SH3 (RV167_YEAST), P39743
# [3] = molecular target: T3, Yfr024 SH3 (LSB3_YEAST), P43603
# [4] = molecular target: T4, Boi2 SH3 (BOI2_YEAST), P39969
# [5] = molecular target: T5, Boi1 SH3 (BOI1_YEAST), P38041
Binder,"normalised SPOT signal, Boehringer light units (BLU); mean over the file's lines of this peptide [1]","normalised SPOT signal, Boehringer light units (BLU); mean over the file's lines of this peptide [2]","normalised SPOT signal, Boehringer light units (BLU); mean over the file's lines of this peptide [3]","normalised SPOT signal, Boehringer light units (BLU); mean over the file's lines of this peptide [4]","normalised SPOT signal, Boehringer light units (BLU); mean over the file's lines of this peptide [5]"
B1,15.7,26.7,252,33.5,180
B2,3830,29100,10800,45.2,2120
B3,992,12100,25100,146,1140
B4,105,66,196,16.9,17.6
B5,187,242,342,47.6,151
B6,124,6.8,249,52.1,154
B7,61.3,67.9,98.6,54.4,309
B8,2960,280,13400,71.2,181
B9,85.9,9.1,808,32.6,136
B10,404,425,2490,343,112
B11,0,45.3,3700,34.1,9.1
B12,210,50.8,396,46,166
B13,320,156,253,122,117
B14,151,35.2,9910,25.8,244
B15,21700,11100,30600,219,20000
B16,112,33.3,1300,22,56.8
B17,1820,605,8630,51.3,285
B18,229,57.7,220,183,112
B19,95.4,86.7,10700,15.3,239
B20,94.6,15.8,11.4,90.6,76
B21,408,9.5,149,68.1,181
B22,241,22.9,41.3,58.5,69.8
